Results as given in the supplement of paper PMC11246515.
± gives the standard deviation of the averaged measurements.

Test: total protein half-life in vivo (active degradation + dilution); higher = more stable protein
[1] = E. coli NCM3722 delta-clpP delta-lon delta-hslV, growth: N-lim chemostat, doubling time 6 h
[2] = E. coli NCM3722 delta-hslV, growth: N-lim chemostat, doubling time 6 h
[3] = E. coli NCM3722 delta-lon, growth: N-lim chemostat, doubling time 6 h
[4] = E. coli NCM3722 delta-smpB, growth: N-lim chemostat, doubling time 6 h
[5] = wild type E. coli NCM3722, growth: C-lim chemostat, doubling time 3 h
[6] = wild type E. coli NCM3722, growth: C-lim chemostat, doubling time 6 h
[7] = wild type E. coli NCM3722, growth: C-lim chemostat, doubling time 12 h
[8] = wild type E. coli NCM3722, growth: N-lim chemostat, doubling time 6 h
[9] = wild type E. coli NCM3722, growth: N-lim chemostat, doubling time 12 h
[10] = wild type E. coli NCM3722, growth: P-lim chemostat, doubling time 6 h
[11] = wild type E. coli NCM3722, growth: P-lim chemostat, doubling time 12 h
[12] = E. coli NCM3722 delta-clpP, growth: N-lim chemostat, doubling time 6 h

| Sequence | total protein half-life in vivo [1] [h] | total protein half-life in vivo [2] [h] | total protein half-life in vivo [3] [h] | total protein half-life in vivo [4] [h] | total protein half-life in vivo [5] [h] | total protein half-life in vivo [6] [h] | total protein half-life in vivo [7] [h] | total protein half-life in vivo [8] [h] | total protein half-life in vivo [9] [h] | total protein half-life in vivo [10] [h] | total protein half-life in vivo [11] [h] | total protein half-life in vivo [12] [h] |
| --- | --- | --- | --- | --- | --- | --- | --- | --- | --- | --- | --- | --- |
| MLKRLLKRPSLNLLAWLLLAAFYISICLNIAFFKQVLQALPLDSLHNVLVFLSMPVVAFSVINIVLTLSSFLWLNRPLACLFILVGAAAQYFIMTYGIVIDRSMIANIIDTTPAESYALMTPQMLLTLGFSGVLAALIACWIKIKPATSRLRSVLFRGANILVSVLLILLVAALFYKDYASLFRNNKELVKSLSPSNSIVASWSWYSHQRLANLPLVRIGEDAHRNPLMQNEKRKNLTILIVGETSRAENFSLNGYPRETNPRLAKDNVVYFPNTASCGTATAVSVPCMFSDMPREHYKEELAQHQEGVLDIIQRAGINVLWNDNDGGCKGACDRVPHQNVTALNLPDQCINGECYDEVLFHGLEEYINNLQGDGVIVLHTIGSHGPTYYNRYPPQFRKFTPTCDTNEIQTCTKEQLVNTYDNTLVYVDYIVDKAINLLKEHQDKFTTSLVYLSDHGESLGENGIYLHGLPYAIAPDSQKQVPMLLWLSEDYQKRYQVDQNCLQKQAQTQHYSQDNLFSTLLGLTGVETKYYQAADDILQTCRRVSE | 7.04 ± 1.1 | 6.05 ± 0.36 | 6.41 ± 0.43 | 6.19 ± 0.59 | 3.22 ± 0.046 | 6.12 ± 0.22 | 10.7 ± 1.6 | 6.42 ± 0.21 | 12.3 ± 0.34 | 6.03 ± 0.31 | 13 ± 0.68 |  |
| MFSIQQPLLVFSDLDGTLLDSHSYDWQPAAPWLTRLREANVPVILCSSKTSAEMLYLQKTLGLQGLPLIAENGAVIQLAEQWQEIDGFPRIISGISHGEISLVLNTLREKEHFKFTTFDDVDDATIAEWTGLSRSQAALTQLHEASVTLIWRDSDERMAQFTARLNELGLQFMQGARFWHVLDASAGKDQAANWIIATYQQLSGKRPTTLGLGDGPNDAPLLEVMDYAVIVKGLNREGVHLHDEDPARVWRTQREGPEGWREGLDHFFSAR | 4.98 ± 0.28 | 4.17 ± 0.055 | 4.3 ± 0.26 | 3.73 ± 0.22 | 2.87 ± 0.076 | 5.25 ± 0.12 | 8.64 ± 0.059 | 4.167 ± 0.036 | 6.751 ± 0.019 | 5.43 ± 0.42 | 10.5 ± 0.14 | 4.08 ± 0.42 |
| MPDQTQQFSFKVLTINIHKGFTAFNRRFILPELRDAVRTVSADIVCLQEVMGAHEVHPLHVENWPDTSHYEFLADTMWSDFAYGRNAVYPEGHHGNAVLSRYPIEHYENRDVSVDGAEKRGVLYCRIVPPMTGKAIHVMCVHLGLREAHRQAQLAMLAEWVNELPDGEPVLVAGDFNDWRQKANHPLKVQAGLDEIFTRAHGRPARTFPVQFPLLRLDRIYVKNASASAPTALPLRTWRHLSDHAPLSAEIHL [P0AAW1] | 6.17 ± 0.23 |  | 5.85 ± 0.22 | 5.57 ± 0.47 | 2.68 ± 0.41 | 4.96 ± 0.51 | 10.9 ± 3 | 5.11 ± 0.57 | 13.9 ± 0.67 | 5.16 ± 0.24 | 11.5 ± 0.52 | 6.2 ± 0.43 |
| MSNQFGDTRIDDDLTLLSETLEEVLRSSGDPADQKYVELKARAEKALDDVKKRVSQASDSYYYRAKQAVYRADDYVHEKPWQGIGVGAAVGLVLGLLLARR [P0AEH5] | 6.419 ± 0.022 | 6.88 ± 0.34 | > 8 | 5.64 ± 0.42 |  | 6.46 ± 0.78 | 10.1 ± 0.52 | 5.99 ± 0.7 | 14.8 ± 0.89 | 5.16 ± 1.5 | 12.6 ± 0.4 |  |
| MCEHHHAAKHILCSQCDMLVALPRLEHGQKAACPRCGTTLTVAWDAPRQRPTAYALAALFMLLLSNLFPFVNMNVAGVTSEITLLEIPGVLFSEDYASLGTFFLLFVQLVPAFCLITILLLVNRAELPVRLKEQLARVLFQLKTWGMAEIFLAGVLVSFVKLMAYGSIGVGSSFLPWCLFCVLQLRAFQCVDRRWLWDDIAPMPELRQPLKPGVTGIRQGLRSCSCCTAILPADEPVCPRCSTKGYVRRRNSLQWTLALLVTSIMLYLPANILPIMVTDLLGSKMPSTILAGVILLWSEGSYPVAAVIFLASIMVPTLKMIAIAWLCWDAKGHGKRDSERMHLIYEVVEFVGRWSMIDVFVIAVLSALVRMGGLMSIYPAMGALMFALVVIMTMFSAMTFDPRLSWDRQPESEHEES [P0AFL9] |  |  |  |  |  |  |  |  | 11 |  |  |  |
| MDYVCSVVFICQSFDLIINRRVISFKKNSLFIVSDKIRRELPVCPSKLRIVDIDKKTCLSFFIDVNNELPGKFTLDKNGYIAEEEPPLSLVFSLFEGIKIADSHSLWLKERLCISLLAMFKKRESVNSFILTNINTFTCKITGIISFNIERQWHLKDIAELIYTSESLIKKRLRDEGTSFTEILRDTRMRYAKKLITSNSYSINVVAQKCGYNSTSYFICAFKDYYGVTPSHYFEKIIGVTDGINKTID | 5.39 ± 1.1 | 3.65 ± 0.5 |  | 3.18 ± 0.42 | 2.27 ± 0.2 | 4.11 ± 0.32 | 6.14 | 2.95 | 5.67 ± 0.64 | 3.89 ± 0.38 | 7.61 ± 2.4 | 3.62 ± 0.73 |
| MTVKQTVEITNKLGMHARPAMKLFELMQGFDAEVLLRNDEGTEAEANSVIALLMLDSAKGRQIEVEATGPQEEEALAAVIALFNSGFDED [P0A9N0] | 4.886 ± 0.034 | 2.41 | 2.28 | 2.09 | 2.15 ± 0.18 | 3.27 ± 0.19 | 4.27 | 2.7 | 3.97 ± 0.24 | 2.35 | 4.46 ± 0.45 | 2.96 |
